Test results: patent US7169889B1, “Insulin prodrugs hydrolyzable in vivo to yield peglylated insulin” (priority 1999, dated 2007)
Like-named read-outs stand apart in the source and are kept apart here.

Columns and labels:
[1] = system: pancreatectomized dogs; assay: Oral activity in pancreatectomized diabetic dogs (plasma glucose and insulin); assay type: in vivo; details: for Dmax: microemulsion, N = 2
Experimental: Two dogs were used for each compound. Compounds are formulated in water in oil microemulsion and evaluated at a dose of 1-2 mg/kg. Twenty milliliters of the formulation was administered orally to each dog and the formulations were chased with 20 ml of water. Plasma glucose and insulin levels were monitored at different time intervals.

[2] = system: male CF-1 mice; assay: Mouse blood glucose assay (potency evaluation); assay type: in vivo; details: for Potency: subcutaneous injection, blood glucose 30 minutes post-dose, calculated relative to bovine insulin standard curve
Experimental: Six paired dose groups of 5 male CF-1 mice (˜25 g unfasted) received subcutaneous injections of either bovine insulin or modified insulin. Pre- and post-experimental baselines were established with two vehicle groups. An additional 25 μg/kg insulin dose group served as the internal control. Mice were terminally bled 30 minutes post-dose and blood glucose was measured with a glucometer (ONE TOUCH®). The biological potency of the modified insulin was then calculated relative to a bovine insulin standard curve.

[3] = system: male CF-1 mice; details: bovine insulin standard; assumed potency used for calculations; cited from earlier work

“PEG3-oleate-insulin conjugate: insulin conjugated with hydrolyzable triethylene glycol oleate oligomer, in microemulsion” gave a Dmax ([1]; oral, dose 1 mg/kg) of 49%.

In the case of “Insulin PEG3 Methyl Ether: insulin mono-conjugated with methyl triethylene glycol”, the “in vivo biological activity (potency assay), in words” value ([2]; mouse blood glucose assay, Table 2) was “best result” and the Potency [2] was 43.6 IU/mg.

Substance “Insulin PEG9 Stearate: insulin mono-conjugated with hydrolyzable PEG9 stearate ester oligomer” has a Potency [2] of 15.3 IU/mg.

Galactosamine-PEG14-insulin conjugate gave a Dmax ([1]; oral, dose 2 mg/kg) of 52%.

For “Bovine insulin: bovine insulin standard, assumed potency 27.5 IU/mg”, the Potency [3] is listed as 27.5 IU/mg.

“Insulin PEG9 Hexanoate: insulin mono-conjugated with hydrolyzable PEG9 hexanoate ester oligomer” showed a Potency [2] of 21.3 IU/mg.

For “PEG3-insulin: methyl triethylene glycol insulin conjugates formulated in microemulsion”, the Cmax ([1]; dog, in vivo, po, 2 mg/kg) was 181 μU/ml, the “glucose reduction, in words” value ([1]; oral, formulated in microemulsion, pancreatectomized dogs) was “good glucose reduction” and the Dmax ([1]; oral, dose 2 mg/kg) was 62%.

“Insulin PEG9 Oleate: insulin mono-conjugated with hydrolyzable PEG9 oleate ester oligomer” showed a Potency [2] of 19.0 IU/mg.

In the case of “Insulin PEG10 Oleyl Ether: nonhydrolyzable insulin mono-conjugate with PEG10 oleyl ether oligomer”, the Potency [2] was 0.0 IU/mg.
